Publication PMC6625852

B1: calnexin (natural protein)
chain: HDGHDDDVIDIEDDLDDVIEEVEDSKPDTTAPPSSPKVTYKAPVPTGEVYFADSFDRGTLSGWILSKAKKDDTDDEIAKYDGKWEVEEMKESKLPGDKGLVLMSRAKHHAISAKLNKPFLFDTKPLIVQYEVNFQNGIECGGAYVKLLSKTPELNLDQFHDKTPYTIMFGPDKCGEDYKLHFIFRHKNPKTGIYEEKHAKRPDADLKTYFTDKKTHLYTLILNPDNSFEILVDQSVVNSGNLLNDMTPPVNPSREIEDPEDRKPEDWDERPKIPDPEAVKPDDWDEDAPAKIPDEEATKPEGWLDDEPEYVPDPDAEKPEDWDEDMDGEWEAPQIANPRCESAPGCGVWQRPVIDNPNYKGKWKPPMIDNPSYQGIWKPRKIPNPDFFEDLEPFRMTPFSAIGLELWSMTSDIFFDNFIICADRRIVDDWANDGWGLKKAADGAAEPGVVGQMIEAAEERPWLWVVYILTVALPVFLVILFCCSGKKQTSGMEYKKTDAPQPDVKEEEEEKEEEKDKGDEEEEGEEKLEEKQKSDAEEDGGTVSQEEEDRKPKAEEDEILNRSPRNRKPRRE

Legend:
[1] = biological target: human factor VII N360Q mutant, C-terminal V5 tag (human); test: co-IP
[2] = biological target: human factor VII wild-type, C-terminal V5 tag (human); test: co-IP

| Molecule | level co-precipitated, percent of that with WT FVII [1] | level co-precipitated in DNJ-treated cells, percent of WT in untreated cells [2] |
| --- | --- | --- |
| binding immunoglobulin protein (BiP) (from UniProt P11021 19-654) (natural protein) | 230% | – |
| B1 | 124% | 129% |
